# US20220332844A1 (ORIONIS BIOSCIENCES, published 2022)
# Substitutions are numbered along the chain they refer to.
# T1: mouse FAP on transiently transfected HEK293T cells (pMET7 FLAG-mFAP) (mouse, UniProt P97321 1-761)
# T1 construct: whole, on cells; not shown: FLAG tag of the plasmid pMET7 FLAG-mFAP
# T1 sequence (looked up): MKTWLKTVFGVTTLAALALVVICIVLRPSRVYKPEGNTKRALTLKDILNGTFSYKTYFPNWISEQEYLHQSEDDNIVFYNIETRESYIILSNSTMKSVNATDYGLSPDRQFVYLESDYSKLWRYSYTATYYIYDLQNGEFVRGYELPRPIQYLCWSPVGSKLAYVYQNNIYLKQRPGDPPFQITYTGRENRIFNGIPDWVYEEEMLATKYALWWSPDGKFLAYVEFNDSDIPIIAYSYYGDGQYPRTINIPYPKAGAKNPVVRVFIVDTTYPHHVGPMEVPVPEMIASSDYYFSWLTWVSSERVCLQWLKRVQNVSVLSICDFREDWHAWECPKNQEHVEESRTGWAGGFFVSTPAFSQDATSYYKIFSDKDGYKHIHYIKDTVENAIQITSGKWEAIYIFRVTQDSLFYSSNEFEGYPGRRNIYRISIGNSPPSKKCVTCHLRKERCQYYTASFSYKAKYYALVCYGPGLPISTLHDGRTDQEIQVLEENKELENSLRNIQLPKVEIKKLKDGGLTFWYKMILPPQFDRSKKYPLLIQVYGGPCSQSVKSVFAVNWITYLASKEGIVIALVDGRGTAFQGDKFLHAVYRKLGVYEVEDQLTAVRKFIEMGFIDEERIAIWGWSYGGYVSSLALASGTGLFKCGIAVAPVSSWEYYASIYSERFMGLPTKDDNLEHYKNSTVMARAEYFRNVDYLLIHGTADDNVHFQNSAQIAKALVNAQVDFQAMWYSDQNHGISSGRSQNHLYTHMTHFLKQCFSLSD
# B1: 3PE12 (VHH)
# VHH: QVQLQESGGGLVQPGGSLRLSCAASGSTFSGNAMAWYRQAPGKRRELVAGISGGGVTNYPDSVKGRFTISRDNAKNTVYLQMSSLKPEDTAVYYCNLWPPRVSPGGGVYWGQGTQVTVSS
# B2: 3PE57 (VHH)
# VHH: B1 VHH with G31V, M34V, V102A, G105D, G107R
# B3: 3PE93 (VHH)
# VHH: B1 VHH with G16E, A24V, F29S, G31M, V56A, V63M, V102A
# B4: 3PE42 (VHH)
# VHH: B1 VHH with G16E, A24V, F29S, G31M, V56A, V102A
# Biological target: T1, mouse FAP on transiently transfected …
# Assay: FACS, serial dilution of purified VHH on transfected HEK293T cells
row,binding result,Binder
1,binds,B1
2,binds,B2
3,binds,B3
4,binds,B4
